From IntAct's records for PubMed 19122675

B1: Calmodulin-binding transcription activator 3 (Arabidopsis thaliana (Mouse-ear cress)), Q8GSA7 (parent)
chain: MAEARRFSPVHELDVGQILSEARHRWLRPPEICEILQNYQRFQISTEPPTTPSSGSVFMFDRKVLRYFRKDGHNWRKKKDGKTVKEAHERLKAGSVDVLHCYYAHGQDNENFQRRSYWLLQEELSHIVFVHYLEVKGSRVSTSFNRMQRTEDAARSPQETGDALTSEHDGYASCSFNQNDHSNHSQTTDSASVNGFHSPELEDAESAYNQHGSSTAYSHQELQQPATGGNLTGFDPYYQISLTPRDSYQKELRTIPVTDSSIMVDKSKTINSPGVTNGLKNRKSIDSQTWEEILGNCGSGVEALPLQPNSEHEVLDQILESSFTMQDFASLQESMVKSQNQELNSGLTSDRTVWFQGQDMELNAISNLASNEKAPYLSTMKQHLLHGALGEEGLKKMDSFNRWMSKELGDVGVIADANESFTQSSSRTYWEEVESEDGSNGHNSRRDMDGYVMSPSLSKEQLFSINDFSPSWAYVGCEVVVFVTGKFLKTREETEIGEWSCMFGQTEVPADVISNGILQCVAPMHEAGRVPFYVTCSNRLACSEVREFEYKVAESQVFDREADDESTIDILEARFVKLLCSKSENTSPVSGNDSDLSQLSEKISLLLFENDDQLDQMLMNEISQENMKNNLLQEFLKESLHSWLLQKIAEGGKGPSVLDEGGQGVLHFAASLGYNWALEPTIIAGVSVDFRDVNGWTALHWAAFFGRERIIGSLIALGAAPGTLTDPNPDFPSGSTPSDLAYANGHKGIAGYLSEYALRAHVSLLSLNDKNAETVEMAPSPSSSSLTDSLTAVRNATQAAARIHQVFRAQSFQKKQLKEFGDKKLGMSEERALSMLAPKTHKSGRAHSDDSVQAAAIRIQNKFRGYKGRKDYLITRQRIIKIQAHVRGYQFRKNYRKIIWSVGVLEKVILRWRRKGAGLRGFKSEALVEKMQDGTEKEEDDDFFKQGRKQTEDRLQKALARVKSMVQYPEARDQYRRLLNVVNDIQESKVEKALENSEATCFDDDDDLIDIEALLEDDDTLMLPMSSSLWTS

Variants of: B1
Settings: with calm5_soltu PCM5, Q7DMN9

| effect of a mutation on the interaction | Variant |
| --- | --- |
| disrupting interaction | K907E |
